Data published in article PMC8967867 (2022).

Assays:
[1] = molecular target: CID1R^AltAll, alternative reconstructed CID of the early vertebrate ancestor (1R) with the second most likely …; test: ITC
[2] = molecular target: T1, CID1R^ML, maximum likelihood reconstructed CBP-interacting domain (CID) of the NCOA family from an early …; test: ITC
T1 chain: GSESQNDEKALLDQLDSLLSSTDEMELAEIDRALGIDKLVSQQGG

| Binder | Kd [1] [µM] | Kd [2] [µM] |
| --- | --- | --- |
| GSTPPQALQQLLQTLKSPSSPQQQQQVLQILKSNPQLMAAFIKQRSQHQQ (domain or fragment) | 2.2 | – |
| IMPPALQQLLQTLKSPNSPQQQQQVLHILKSNPQLMAAFIKQRSQQQQ (domain or fragment) | – | 9.7 |
